According to the MegaScale stability set (Tsuboyama et al. 2023):

B1: EEHEE_rd4_0003 (parent)
chain: KKVTINGVEIKFNNPEEAVKFALELAKRLNLRIEFHGDQIKIE

Variants of: B1
Test: folding stability dG (cDNA display proteolysis); higher = more stable
Settings: PBS, room temperature

Folding stability dG [kcal/mol]: each site, then its substitutions
E17: Q 2.48 | R 2.16 | P 1.9 | V 2.25 | I 2.36 | H 2.23 | T 2.26 | K 2.3 | L 2.56 | D 2.68 | F 2.36 | C 4.22 | S 2.39 | A 2.68 | G 2.2 | Y 2.56 | N 2.24 | W 2.84 | M 2.49
I10: G 1.21 | A 1.65 | H 2.49 | S 1.6 | V 2.22 | L 2.6 | Y 2.99 | M 2.36 | Q 1.65 | T 1.78 | P 1.19 | W 2.55 | N 1.5 | D 1.28 | K 1.83 | E 1.36 | R 1.88 | C 3.45 | F 2.89
P15: D 2.46 | G 2.53 | E 2.52 | R 2.79 | Q 2.48 | I 2.85 | Y 3.14 | M 2.97 | C 3.65 | T 2.74 | W 3.67 | A 2.78 | F 3.12 | H 2.84 | L 2.9 | K 2.47 | V 2.67 | S 2.77 | N 2.45
E16: W 2.99 | C 3.56 | N 2.43 | M 2.66 | Y 2.7 | K 2.48 | G 2.48 | D 2.53 | H 2.47 | A 2.61 | F 2.69 | R 2.6 | L 2.69 | P 2.08 | S 2.54 | V 2.53 | I 2.59 | Q 2.6 | T 2.46
K1: A 2.84 | Y 3.44 | S 2.83 | W 3.51 | I 3.3 | H 2.89 | T 3.14 | V 3.25 | R 2.79 | E 2.09 | M 3.33 | Q 2.5 | G 2.6 | N 2.67 | D 2.23 | F 3.5 | P 2.75 | L 3.15
E9: Q 2.46 | R 2.36 | Y 2.58 | N 2.19 | D 2.3 | I 2.85 | G 2.12 | F 2.53 | H 2.46 | K 2.08 | T 2.98 | A 2.4 | P 2.3 | W 2.73 | S 2.58 | L 2.78 | C 3.54 | M 2.62 | V 2.94
V3: D 1.7 | F 2.27 | Y 2.26 | Q 1.59 | S 1.46 | H 1.86 | L 2.39 | R 1.95 | W 2.29 | T 1.76 | A 1.67 | E 1.86 | I 2.48 | G 1.85 | M 2.12 | P 2.06 | N 1.7 | K 1.57
G7: P 2.01 | W 2.54 | F 2.37 | H 1.89 | R 1.87 | Q 1.96 | I 2.84 | V 2.45 | L 2.42 | M 2.2 | N 2.11 | D 1.89 | A 1.95 | Y 2.23 | T 1.98 | C 3.05 | K 2.09 | E 1.78 | S 1.85
N14: K 2.35 | Q 2.06 | V 2.36 | W 2.39 | P 2.4 | T 3.02 | R 2.44 | L 2.56 | C 2.98 | D 2.56 | H 2.37 | G 2.22 | Y 2.41 | E 1.86 | F 2.64 | A 2.25 | M 2.38 | S 2.93 | I 2.36
I5: P 1.79 | R 1.58 | D 1.54 | C 3.46 | T 1.59 | N 1.47 | A 1.71 | S 1.46 | V 2.47 | L 2.39 | H 1.93 | E 1.56 | M 2.07 | W 2.83 | K 1.54 | G 1.72 | Y 2.71 | Q 1.66 | F 2.8
A18: F 2.79 | N 1.75 | P 1.64 | D 1.41 | G 2.01 | E 1.47 | H 1.7 | L 2.59 | M 2.47 | I 2.45 | Q 1.61 | K 1.52 | C 3.5
K2: R 2.78 | C 3.4 | T 3.4 | Q 2.36 | E 2.06 | P 2.2 | M 2.83 | V 3.28 | S 2.92 | A 2.46 | G 2.2 | D 1.93 | Y 2.82 | L 2.84 | F 2.8 | I 3.41 | H 2.46 | N 2.48 | W 2.88
K11: Q 2.72 | P 2.22 | I 3 | R 2.78 | Y 3.32 | H 3.03 | V 2.96 | A 2.6 | D 2.3 | W 3.53 | E 2.77 | G 2.28 | F 3.26 | S 2.72 | L 3.02 | T 2.85 | N 2.83 | C 3.94 | M 2.99
N13: F 2.54 | C 3.31 | A 2.8 | G 2.44 | Q 2.54 | P 2.53 | L 2.72 | R 2.84 | I 2.59 | D 2.73 | E 2.59 | K 2.8 | W 2.6 | H 2.45 | Y 2.39 | M 2.66 | T 2.61 | V 2.46 | S 2.69
N6: A 2.41 | V 2.52 | D 2.25 | M 2.65 | T 2.01 | Y 2.75 | Q 2.14 | C 4.2 | S 2.11 | P 1.57 | F 3.23 | W 3.34 | R 2.25 | H 2.45 | L 2.87 | K 2.17 | E 1.91 | I 2.41 | G 2.5
V8: L 2.51 | E 1.99 | D 1.65 | A 2.03 | N 2 | H 2.53 | C 3.55 | K 2.4 | G 1.78 | W 2.75 | I 2.74 | Q 2.25 | F 2.71 | Y 2.82 | T 2.24 | P 1.6 | S 1.97 | R 2.56 | M 2.51
T4: E 1.98 | C 3.48 | W 3.01 | G 1.61 | Q 2.17 | I 3 | A 2.02 | D 1.7 | Y 3.11 | S 2.38 | V 2.94 | M 2.74 | N 2.21 | L 2.95 | H 2.26 | P 1.76 | R 2.18 | K 2.29 | F 3.25
F12: S 1.57 | R 1.41 | V 1.86 | H 1.45 | G 1.55 | T 1.7 | W 2.14 | I 1.9 | K 1.09 | A 1.48 | M 1.96 | Y 1.89 | E 0.907 | D 0.955 | P 1.14 | Q 1.13 | N 1.33 | L 1.92 | C 3.25
